Patent EP4335870A1
pKd: −log10 of the molar value.

Molecular target: SARS-CoV-2 Spike RBD K417N/N501Y (SARS-CoV-2) (UniProt P0DTC2)

Row | Substance | pKd | koff | kon
1 | ACE2(T27Y/H34A/H374N)-IgG1Fc (from UniProt Q9BYF1 18-615) (Fc fusion) | 9.35 | 0.000334 s⁻¹ | 747000 M⁻¹ s⁻¹
2 | ACE2-Fc IgG Hybrid Protein (ACE2-IgG1Fc, wildtype) (Fc fusion) | 8.12 | 0.00347 s⁻¹ | 457000 M⁻¹ s⁻¹
